Our source for the koff and IC50 values is paper PMC4197845 (International journal of cancer. Journal international du …, 2011).

Assay [1] has as its target EGFR as used for SPR (BIAcore) (Homo sapiens, UniProt P00533). Nature of the assay: SPR. Background: In SPR one partner is held on a chip, and binding of the other changes the refractive index at the surface.
In assay [2] the target is EGFR extra-cellular domain (EGFR-ECD; a.a. 1-614) fused to a human IgG1 Fc. Description: ELISA. (In general: In an ELISA, binding on a coated surface is turned into a signal by an enzyme label.)

B1: 38G7 nanobody (VHH)
VHH: EVQLVESGGGLVQAGGSLRLSCAASGRTFSSYVMGWFRQATGKEREFVATIAWDSGSTYYADSVKGRFTISRDNAKNTVHLQMNSLKPEDTAVYYCAASYNVYYNNYYYPISRDEYDYWGQGTQVTVSS
In the case of B1, in assay [1], the koff amounted to 0.0002 s⁻¹. Besides, the half-maximal inhibitory concentration (IC50) in assay [2] was determined as 10 nM.

In general, koff refers to a measure of how fast the partners let go of each other. High values mean a short-lived complex, low ones a long-lived complex. As a reminder, the IC50 is the concentration that gives 50% inhibition. A high value points to a need for much substance.
